Drawing on article PMC10336103, “ResR/McdR-regulated protein translation machinery contributes to drug resilience in Mycobacterium tuberculosis” (Communications Biology, 2023), this text covers Kd for 2 substances.

Holding throughout (assay): EMSA
Background: Mobility shift assays separate free from complexed probe on a gel.

Series [1] concerns ResR/McdR (ResR1-225) (Mycobacterium tuberculosis Erdman).
The subject of series [2] is ResR/McdR17-225 (Mycobacterium tuberculosis Erdman).
Series [3] concerns ResR/McdRMS (Mycobacterium smegmatis).

Usually Kd stands for a measure of binding affinity in units of concentration.

For PrplN_FL, the equilibrium dissociation constant (Kd) is 780 nM in series [1], 1170 nM in series [2] and 1400 nM in series [3].

On to PwhiB2_FL, for which, in series [1], the Kd is 330 nM. This lies in the sub-micromolar range.
